Measurements: patent publication US20150118238A1

Target: RON on RON-transfected NIH 3T3 cells (UniProt Q04912)
Assay: IHC on FFPE RON-transfected NIH3T3 cells, Aperio Positive Pixel Count

With EP1132Y antibody (Anti-RON) the Relative Positive Pixel Intensity Score was 221.
